We go through two molecules from US20200354468A1 (US Dept. of Health and Human Services, published 2020).

The target in test [1] is T1, Recombinant CD133 domain B polypeptide (Homo sapiens, UniProt O43490 515-745).
T1 construct: also called CD133B; recombinant CD133 Extracellular Domain B
T1 sequence: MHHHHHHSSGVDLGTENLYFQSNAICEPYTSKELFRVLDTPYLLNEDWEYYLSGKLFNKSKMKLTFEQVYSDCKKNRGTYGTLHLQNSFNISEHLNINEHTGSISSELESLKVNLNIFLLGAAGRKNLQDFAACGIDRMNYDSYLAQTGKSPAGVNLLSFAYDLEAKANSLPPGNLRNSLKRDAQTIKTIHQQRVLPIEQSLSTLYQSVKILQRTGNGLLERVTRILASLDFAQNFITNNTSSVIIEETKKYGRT
The test is described as follows: direct ELISA, recombinant domain coated. Here is the method: (§1) The cDNAs of IgG heavy and light chains were amplified by polymerase chain reaction (PCR) and cloned into a mammalian expression vector. The recombinant monoclonal antibody was then transiently expressed using a HEK293 cell system. The expressed recombinant antibodies were then tested by ELISA against CD133 immunogenic polypeptides A and B and recombinant domain A and B polypeptides. […] The testing confirmed the specificity of the mAbs. The cDNA was sequenced.
In general terms: ELISA stands for enzyme-linked immunosorbent assay.

Test [2] concerns the target T2, BSA-conjugated CD133 immunogenic polypeptide B (Homo sapiens, lysine added as C-terminal residue for conjugation; conjugated to BSA).
T2 construct: The peptide stood in the assays as a BSA conjugate; the text gives 615-643; also called B-BSA; Pep B
T2 peptide: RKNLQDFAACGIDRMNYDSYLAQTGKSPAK
As to the kind of experiment: direct ELISA, BSA-conjugated peptide coated.

The target of test [3] is T1, Recombinant CD133 domain B polypeptide. The test is described as follows: subclone screening by ELISA and Western blot.
For test [4], the target named is T3, Recombinant CD133 domain A polypeptide (Homo sapiens, UniProt O43490 180-400, limits assumed).
T3 construct: also called CD133A; recombinant CD133 Extracellular Domain A
T3 sequence: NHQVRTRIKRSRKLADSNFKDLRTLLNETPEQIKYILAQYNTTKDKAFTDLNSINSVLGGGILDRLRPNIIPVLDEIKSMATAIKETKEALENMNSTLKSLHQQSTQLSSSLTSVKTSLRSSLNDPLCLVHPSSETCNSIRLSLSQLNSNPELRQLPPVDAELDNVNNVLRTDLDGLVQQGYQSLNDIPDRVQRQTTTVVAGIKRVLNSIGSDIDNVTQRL
The test is described as follows: direct ELISA, recombinant domain coated. Here is the method: as §1

The target in test [5] is T4, BSA-conjugated CD133 immunogenic polypeptide A (Homo sapiens, N-terminal lysine used for conjugation; conjugated to BSA).
T4 construct: The peptide stood in the assays as a BSA conjugate; also called A-BSA; PepA
T4 peptide: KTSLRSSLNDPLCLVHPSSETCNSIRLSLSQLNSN
As to the kind of experiment: direct ELISA, BSA-conjugated peptide coated.

B1: anti-CD133 monoclonal antibody mAb 47-10 (antibody, V domains shown)
VH: QSVEESGGRLVTPGTPLTLTCTVSGIDLNNYNMQWVRQAPGKGLEWIGATFGSDSIYYATWAKGRFTISKTSTTVDLKMTSLTTEDTATYFCARGGLWGPGTLVTVSS
VL: AQVLTQTASPVSAAVGATVTINCQSSQSVYNNNYLAWFQQKPGQPPKLLIYRASTLASGVSSRFKGSGSGTQFALTISGVQCDDAGTYYCQGEFSCDSADCAAFGGGTEVVVKG
notes: Rabbit IgG from a hybridoma, cloned and made recombinantly in HEK293 cells; also called clone 47-10; mAb subclone 47-10
As to B1, the binding result in test [1] and in test [2] was “no binding” each time.

B2: anti-CD133 monoclonal antibody mAb 133-3 (antibody, V domains shown)
VH: QSVEESGGRLVTPGTPLTLTCTVSGFSLSRYAMSWVRQAPGKGLDWIGYIDIGGGAYYASWAKGRFTISETSTTVYLKVNSPTTEDTATYFCARGVANSDIWGPGTLVTVSS
VL: ALVMTQTPSPVSAAVGGTVTINCQSSQSVFNNKWLSWYQQKPGQPPKLLIYFVSTLASGVPSRFKGSGSGTQFTLTISGVQCDDAATYYCQGSDYSSGWYSPFGGGTEVVVEG
notes: Rabbit IgG from a hybridoma, cloned and made recombinantly in HEK293 cells
On to B2, for which the binding result in test [3] was “binds”; in test [4], “no binding”; in test [5] it was “no binding”; in test [2], “binds”.
